US20190092852A1 (Genentech, published 2019)

Assays:
human IL-33 N-His = target: T1, human IL-33 N-His (human); test: cell-based or functional assay
T1 chain: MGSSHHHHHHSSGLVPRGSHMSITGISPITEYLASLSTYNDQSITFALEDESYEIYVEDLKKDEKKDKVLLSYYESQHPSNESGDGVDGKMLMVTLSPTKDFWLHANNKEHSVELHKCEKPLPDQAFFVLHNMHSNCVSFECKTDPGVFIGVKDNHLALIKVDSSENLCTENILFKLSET

[1] = target: T2, human IL-33 (construct not stated) (human, UniProt O95760 112-270); test: SPR Biacore 3000, captured by anti-human Fab, 25 C, mean of three lots
T2 construct: also called human IL-33 (Genentech); recombinant human IL33
T2 sequence (looked up): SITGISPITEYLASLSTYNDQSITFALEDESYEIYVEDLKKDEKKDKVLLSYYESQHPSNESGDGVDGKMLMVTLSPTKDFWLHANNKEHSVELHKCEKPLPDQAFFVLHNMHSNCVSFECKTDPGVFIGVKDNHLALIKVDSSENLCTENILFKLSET
Experimental: (§1) The binding kinetics of the bispecific antibody 10C12-IL-13 KIH IgG4 to human IL-33, cyno IL-33, and human IL-13 was assessed using BIACORE® 3000 SPR (FIG. 20).
(§2) The binding kinetics of the bispecific antibody 10C12-IL13 KIH IgG4 to human IL-33, cyno IL-33, and human IL-13 was assessed using SPR on a BIACORE® 3000 (GE Healthcare). Anti-human Fab (GE Healthcare) was immobilized on a CM5 sensor chip via amine-based coupling according to the manufacturer's protocol. The bispecific antibody was captured and binding was measured to human IL-33 (Genentech), cyno IL-33 (Genentech), and human IL-13 (Peprotech). […] Sensograms for binding of cytokine were recorded using an injection time of 2 min with a flow rate of 30 μl/min, at a temperature of 25° C., and with a running buffer of 10 mM HEPES, pH 7.4, 150 mM NaCl, 3 mM EDTA, and 0.005% TWEEN®-20. After injection, disassociation of the ligand from the antibody was monitored for 600 sec in running buffer. The surface was regenerated between binding cycles with a 40 μl injection of 10 mM Glycine-HCl pH 2.1. After subtraction of a blank which contained running buffer only, sensograms observed for cytokine binding to the bispecific antibody were analyzed using a 1:1 Langmuir binding model with software supplied by the manufacturer to calculate the kinetics and binding constants, including the dissociation constant (KD).

human IL-13 (Peprotech) [2] = target: T3, human IL-13 (Peprotech) (human, UniProt P35225 35-146); test: as above
T3 sequence (P35225 35-146 limits assumed): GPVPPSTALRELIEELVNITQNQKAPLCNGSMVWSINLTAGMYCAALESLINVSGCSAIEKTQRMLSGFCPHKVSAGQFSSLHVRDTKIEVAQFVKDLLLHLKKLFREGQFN
Experimental: as §1, §2

[3] = target: T4, cyno IL-33 (construct not stated) (cynomolgus monkey, UniProt A0A2K5W3I1 112-269); test: as above
T4 construct: also called cynomolgus IL-33; cyno IL-33 (Genentech)
T4 sequence: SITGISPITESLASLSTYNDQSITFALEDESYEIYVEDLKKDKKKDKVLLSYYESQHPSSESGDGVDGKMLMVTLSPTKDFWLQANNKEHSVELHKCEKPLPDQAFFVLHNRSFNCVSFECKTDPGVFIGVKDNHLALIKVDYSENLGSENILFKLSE
Experimental: as §1, §2

[4] = target: T2, human IL-33 (construct not stated); test: SPR, BIACORE 3000, antibody captured on anti-human Fab, 25 C, 1:1 Langmuir model; lot 2
Experimental: as §2

human IL-13 (Peprotech) [5] = target: T3, human IL-13 (Peprotech); test: as above
Experimental: as §2

[6] = target: T4, cyno IL-33 (construct not stated); test: as above
Experimental: as §2

[7] = target: T2, human IL-33 (construct not stated); test: cell-based or functional assay
[8] = target: T2, human IL-33 (construct not stated); test: SPR, BIACORE 3000, antibody captured on anti-human Fab, 25 C, 1:1 Langmuir model; lot 3
Experimental: as §2

human IL-13 (Peprotech) [9] = target: T3, human IL-13 (Peprotech); test: as above
Experimental: as §2

[10] = target: T4, cyno IL-33 (construct not stated); test: as above
Experimental: as §2

[11] = target: T2, human IL-33 (construct not stated); test: SPR, BIACORE 3000, antibody captured on anti-human Fab, 25 C, 1:1 Langmuir model; lot 1
Experimental: as §2

human IL-13 (Peprotech) [12] = target: T3, human IL-13 (Peprotech); test: as above
Experimental: as §2

[13] = target: T4, cyno IL-33 (construct not stated); test: as above
Experimental: as §2

B1: 10C12.38.H6.87Y.58I/IL-13 IgG4 (bispecific antibody)
heavy 1: EVQLVESGGGLVQPGGSLRLSCAASGFTFSSFSMSWVRQAPGKGLEWVATISGGKTFTDYVDSVKGRFTISRDDSKNTLYLQMNSLRAEDTAVYYCTRANYGNWFFEVWGQGTLVTVSSASTKGPSVFPLAPCSRSTSESTAALGCLVKDYFPEPVTVSWNSGALTSGVHTFPAVLQSSGLYSLSSVVTVPSSSLGTKTYTCNVDHKPSNTKVDKRVESKYGPPCPPCPAPEFLGGPSVFLFPPKPKDTLMISRTPEVTCVVVDVSQEDPEVQFNWYVDGVEVHNAKTKPREEQFNSTYRVVSVLTVLHQDWLNGKEYKCKVSNKGLPSSIEKTISKAKGQPREPQVYTLPPSQEEMTKNQVSLSCAVKGFYPSDIAVEWESNGQPENNYKTTPPVLDSDGSFFLVSRLTVDKSRWQEGNVFSCSVMHEALHNHYTQKSLSLSLG
light 1: EIVLTQSPATLSLSPGERATLSCRASESVAKYGLSLLNWFQQKPGQPPRLLIFAASNRGSGIPARFSGSGSGTDFTLTISSLEPEDFAVYYCQQSKEVPFTFGQGTKVEIKRTVAAPSVFIFPPSDEQLKSGTASVVCLLNNFYPREAKVQWKVDNALQSGNSQESVTEQDSKDSTYSLSSTLTLSKADYEKHKVYACEVTHQGLSSPVTKSFNRGEC
heavy 2: not shown
light 2: DIVLTQSPDSLSVSLGERATINCRASKSVDSYGNSFMHWYQQKPGQPPKLLIYLASNLESGVPDRFSGSGSGTDFTLTISSLQAEDVAVYYCQQNNEDPRTFGGGTKVEIKRTVAAPSVFIFPPSDEQLKSGTASVVCLLNNFYPREAKVQWKVDNALQSGNSQESVTEQDSKDSTYSLSSTLTLSKADYEKHKVYACEVTHQGLSSPVTKSFNRGEC
notes: Knob-in-hole human IgG4 made in E. coli: anti-IL-33 arm as hole, anti-IL-13 arm (lebrikizumab CDRs; Q1E heavy, M4L light) as knob; also called 10C12-IL-13 KIH IgG4; 10C12-IL13 KIH IgG4
IC50; SEAP reporter, HEK-BLUE IL-33 cells, 15 pM human IL-33 N-His, 20 h (human IL-33 N-His): 25.4 pM
Kd [1]: 0.025 nM
Kd (human IL-13 (Peprotech) [2]): < 0.01 nM
Kd [3]: 0.076 nM
Kd [4]: 0.026 nM
koff [4]: 3e-05 s⁻¹
kon [4]: 1.14e+06 M⁻¹ s⁻¹
Kd (human IL-13 (Peprotech) [5]): < 0.01 nM
koff (human IL-13 (Peprotech) [5]): 4e-06 s⁻¹
kon (human IL-13 (Peprotech) [5]): 1.47e+06 M⁻¹ s⁻¹
Kd [6]: 0.062 nM
koff [6]: 4e-05 s⁻¹
kon [6]: 650000 M⁻¹ s⁻¹
IC50 (read off the curve); phospho-p38 MFI in CD123+ basophils (average from 2 donors), 10 ng/ml IL-33 [7]: ~0.5 nM
Kd [8]: 0.041 nM
koff [8]: 4e-05 s⁻¹
kon [8]: 990000 M⁻¹ s⁻¹
Kd (human IL-13 (Peprotech) [9]): < 0.01 nM
koff (human IL-13 (Peprotech) [9]): 6e-06 s⁻¹
kon (human IL-13 (Peprotech) [9]): 1.45e+06 M⁻¹ s⁻¹
Kd [10]: 0.059 nM
koff [10]: 4.1e-05 s⁻¹
kon [10]: 700000 M⁻¹ s⁻¹
Kd [11]: 0.01 nM
koff [11]: 1.1e-05 s⁻¹
kon [11]: 1.1e+06 M⁻¹ s⁻¹
Kd (human IL-13 (Peprotech) [12]): < 0.01 nM
koff (human IL-13 (Peprotech) [12]): 2e-06 s⁻¹
kon (human IL-13 (Peprotech) [12]): 1.49e+06 M⁻¹ s⁻¹
Kd [13]: 0.107 nM
koff [13]: 7.2e-05 s⁻¹
kon [13]: 670000 M⁻¹ s⁻¹
